The results in this text go back to patent US20220290149, “METHOD OF DETECTION OF FIBRIN CLOTS” (I-ZUM-X PTY LTD, published 2022).

Numbering of substitutions follows the chain as printed. A value given as a limit tells only on which side of the number the result lay.

For data set [1], the target named is T1, D-dimer (TGpr1; fibrin clot degradation product DD) (UniProt P02671;P02675;P02679-2 P02671:124-225,P02675:164-491,P02679-2:89-437). Kind of data set: ELONA; considered non-specific. As to conditions: chain copies: 2; label: 5' biotin.
The target in data set [2] is T1, D-dimer (TGpr1; fibrin clot degradation …). The experiment in a line: ELONA; TGpr1/SUBpr1 binding ratio, 500 nM aptamer. As to conditions: chain copies: 2. The procedure: FIG. 6 is a graph of the relative fluorescence of five aptamers to TGpr-1 protein and SUBpr-1 protein. The test was performed with an ELONA method with fixed aptamer concentration (500 nM) and protein amount (2 ug/well). *p<0.01.

Data set [3] concerns the target Insoluble cross-linked fibrin / plasma-derived blood clot (Homo sapiens, UniProt P02671-2;P02675;P02679-2 P02671-2:36-644,P02675:45-491,P02679-2:27-437). Kind of data set: qPCR-based binding assay. As to conditions: tags: clot prepared from citrated plasma plus CaCl2.
For data set [4], the target named is T1, D-dimer (TGpr1; fibrin clot degradation …). The experiment in a line: ELONA. As to conditions: chain copies: 2.
Data set [5] has the same target. Kind of data set: ELONA; unit printed as Nm. Particulars: chain copies: 2.
The target in the next data set is Fibrinogen (UniProt P02671-2;P02675;P02679-2 P02671-2:20-644,P02675:31-491,P02679-2:27-437). The experiment in a line: ELONA; 100 nM aptamer. As to conditions: chain copies: 2; label: 5' FAM (ELONA and imaging).
The target of data set [6] is T1, D-dimer (TGpr1; fibrin clot degradation …). Kind of data set: ELONA; 100 nM aptamer. Particulars: chain copies: 2; label: 5' FAM (ELONA and imaging).

T1 sequence (P02671 124-225, chain 1 of 3): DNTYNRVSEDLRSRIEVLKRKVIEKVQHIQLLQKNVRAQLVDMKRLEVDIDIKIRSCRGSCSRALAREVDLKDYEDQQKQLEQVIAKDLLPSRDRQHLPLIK
T1 sequence (P02675 164-491, chain 2 of 3): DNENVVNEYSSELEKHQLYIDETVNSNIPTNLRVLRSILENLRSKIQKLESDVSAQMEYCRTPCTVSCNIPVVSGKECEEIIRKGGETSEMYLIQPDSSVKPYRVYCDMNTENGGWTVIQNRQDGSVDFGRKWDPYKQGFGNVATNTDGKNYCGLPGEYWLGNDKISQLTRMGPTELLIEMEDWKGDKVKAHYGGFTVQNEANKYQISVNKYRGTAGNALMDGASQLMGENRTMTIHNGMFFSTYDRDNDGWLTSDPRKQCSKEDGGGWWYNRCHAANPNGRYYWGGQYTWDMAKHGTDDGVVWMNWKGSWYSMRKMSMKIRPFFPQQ
T1 sequence (P02679 other isoform, or with tags, fused parts or gaps, chain 3 of 3): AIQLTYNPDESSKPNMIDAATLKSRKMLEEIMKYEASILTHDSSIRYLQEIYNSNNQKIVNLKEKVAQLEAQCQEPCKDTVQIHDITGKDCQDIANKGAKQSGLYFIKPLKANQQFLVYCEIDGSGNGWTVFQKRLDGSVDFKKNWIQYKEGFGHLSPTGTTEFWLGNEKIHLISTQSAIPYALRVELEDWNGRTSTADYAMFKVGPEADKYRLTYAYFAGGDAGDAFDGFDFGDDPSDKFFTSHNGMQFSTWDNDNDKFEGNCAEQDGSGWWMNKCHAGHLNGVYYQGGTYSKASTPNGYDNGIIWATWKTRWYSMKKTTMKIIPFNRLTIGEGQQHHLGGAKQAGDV
Chain of Insoluble cross-linked fibrin / plasma-derived blood clot (P02671 other isoform, or with tags, fused parts or gaps, chain 1 of 3): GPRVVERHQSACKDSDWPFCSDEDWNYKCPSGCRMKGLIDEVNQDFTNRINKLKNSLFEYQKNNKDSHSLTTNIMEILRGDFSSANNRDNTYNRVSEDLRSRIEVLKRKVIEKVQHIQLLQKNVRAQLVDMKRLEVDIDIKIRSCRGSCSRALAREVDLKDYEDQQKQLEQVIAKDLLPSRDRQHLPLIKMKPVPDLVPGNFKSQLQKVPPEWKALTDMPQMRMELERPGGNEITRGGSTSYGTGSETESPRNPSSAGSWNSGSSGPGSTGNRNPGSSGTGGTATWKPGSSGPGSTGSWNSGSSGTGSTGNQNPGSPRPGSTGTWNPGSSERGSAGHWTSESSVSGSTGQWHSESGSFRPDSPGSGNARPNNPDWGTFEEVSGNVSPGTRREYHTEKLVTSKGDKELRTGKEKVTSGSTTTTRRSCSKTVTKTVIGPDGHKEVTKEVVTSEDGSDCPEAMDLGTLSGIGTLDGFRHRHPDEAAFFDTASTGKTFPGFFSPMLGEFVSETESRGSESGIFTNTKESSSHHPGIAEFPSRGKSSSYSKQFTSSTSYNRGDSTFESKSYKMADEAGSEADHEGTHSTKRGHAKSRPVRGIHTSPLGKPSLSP
Chain of Insoluble cross-linked fibrin / plasma-derived blood clot (P02675 45-491, chain 2 of 3): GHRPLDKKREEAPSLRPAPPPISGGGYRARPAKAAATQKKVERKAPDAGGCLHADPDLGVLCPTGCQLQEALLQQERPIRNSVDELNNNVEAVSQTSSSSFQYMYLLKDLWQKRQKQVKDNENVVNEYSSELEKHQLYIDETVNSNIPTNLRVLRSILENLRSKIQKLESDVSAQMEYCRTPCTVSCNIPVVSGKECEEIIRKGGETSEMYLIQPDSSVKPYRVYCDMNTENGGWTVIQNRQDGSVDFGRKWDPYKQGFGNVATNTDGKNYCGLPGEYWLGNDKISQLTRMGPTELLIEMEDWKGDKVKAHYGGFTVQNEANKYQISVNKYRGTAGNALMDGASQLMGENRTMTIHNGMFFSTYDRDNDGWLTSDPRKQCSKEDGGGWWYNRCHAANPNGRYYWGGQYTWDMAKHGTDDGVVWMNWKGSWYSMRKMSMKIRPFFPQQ
Chain of Insoluble cross-linked fibrin / plasma-derived blood clot (P02679 other isoform, or with tags, fused parts or gaps, chain 3 of 3): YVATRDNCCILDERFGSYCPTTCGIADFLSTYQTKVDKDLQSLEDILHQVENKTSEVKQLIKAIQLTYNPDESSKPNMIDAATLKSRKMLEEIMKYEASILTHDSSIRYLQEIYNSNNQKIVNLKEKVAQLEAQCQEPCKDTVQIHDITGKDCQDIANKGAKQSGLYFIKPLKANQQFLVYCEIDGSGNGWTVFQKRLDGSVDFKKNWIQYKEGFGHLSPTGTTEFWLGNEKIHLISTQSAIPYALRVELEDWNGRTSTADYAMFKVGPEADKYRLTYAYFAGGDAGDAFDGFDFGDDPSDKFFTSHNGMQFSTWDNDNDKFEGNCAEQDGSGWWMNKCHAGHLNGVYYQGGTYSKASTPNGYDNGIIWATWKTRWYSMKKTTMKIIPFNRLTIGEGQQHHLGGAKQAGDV
Chain of Fibrinogen (P02671 other isoform, or with tags, fused parts or gaps, chain 1 of 3): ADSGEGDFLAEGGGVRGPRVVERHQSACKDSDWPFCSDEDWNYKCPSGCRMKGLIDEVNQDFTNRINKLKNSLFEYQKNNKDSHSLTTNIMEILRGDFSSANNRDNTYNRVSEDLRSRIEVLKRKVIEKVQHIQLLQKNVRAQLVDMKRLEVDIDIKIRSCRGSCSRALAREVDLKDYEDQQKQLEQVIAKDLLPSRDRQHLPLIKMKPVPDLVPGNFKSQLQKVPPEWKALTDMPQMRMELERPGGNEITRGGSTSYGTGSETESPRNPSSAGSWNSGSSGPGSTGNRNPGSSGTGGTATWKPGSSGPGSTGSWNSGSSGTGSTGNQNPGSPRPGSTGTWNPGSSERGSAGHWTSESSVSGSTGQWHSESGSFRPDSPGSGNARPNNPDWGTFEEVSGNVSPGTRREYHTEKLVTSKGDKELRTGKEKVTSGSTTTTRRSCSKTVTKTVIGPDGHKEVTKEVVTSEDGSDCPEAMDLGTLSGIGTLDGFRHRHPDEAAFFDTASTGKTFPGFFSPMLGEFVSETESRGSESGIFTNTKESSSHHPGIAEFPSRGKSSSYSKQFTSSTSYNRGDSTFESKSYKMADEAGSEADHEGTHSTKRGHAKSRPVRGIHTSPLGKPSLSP
Chain of Fibrinogen (P02675 31-491, chain 2 of 3): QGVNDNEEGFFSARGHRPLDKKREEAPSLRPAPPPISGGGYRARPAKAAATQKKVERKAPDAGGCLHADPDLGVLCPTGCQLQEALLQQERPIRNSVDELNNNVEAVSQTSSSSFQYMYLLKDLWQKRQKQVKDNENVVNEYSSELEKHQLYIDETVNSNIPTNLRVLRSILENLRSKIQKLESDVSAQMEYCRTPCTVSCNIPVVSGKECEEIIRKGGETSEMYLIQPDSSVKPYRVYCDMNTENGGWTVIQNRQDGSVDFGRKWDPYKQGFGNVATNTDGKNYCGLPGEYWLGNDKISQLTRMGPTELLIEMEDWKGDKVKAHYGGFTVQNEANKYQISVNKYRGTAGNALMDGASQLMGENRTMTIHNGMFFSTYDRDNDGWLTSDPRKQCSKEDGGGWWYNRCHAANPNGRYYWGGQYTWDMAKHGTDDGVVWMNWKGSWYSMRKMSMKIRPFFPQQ

B1: AP1 (ssDNA)
DNA: ACAAAGCGACACACAGGAGCCCGGTCGGCGGGGGGGCGGGTGGAGAACGAGGTAGGGGTCAGGACAGGACCACACCCAGCG
Regarding B1, the Kd in data set [1] is over 1000 nM.

B2: AP3 (ssDNA)
DNA: B1 DNA with G33T
Regarding B2, the Kd in data set [1] was over 1000 nM.
Regarding AAGGGAAAGTGTATACACTATGGCT (ssDNA) [EM9-02], the binding signal in data set [2] worked out at 1.85 ratio.

B3: RNV607 (ssDNA)
DNA: GGACAGGACCACACCCAGCGAGGAAATATTTAGGCACCCGGTCTCTGAAAATATTGTGCTGGCTCCTGTGTGTCGCTTTGT
Consider B3, for which the binding result in data set [3] is reported as “binds”.

B4: RNV603 (ssDNA)
DNA: GGACAGGACCACACCCAGCGTGCGTGAAATTCGGGGCATGGTTAGGATAGGTAATATTTTGGCTCCTGTGTGTCGCTTTGT
As for B4, the binding result in data set [3] is on record as “binds”.

B5: EM1 (ssDNA)
DNA: ACAAAGCGACACACAGGAGCCCAATGATGCTGTTATGGCGCTTTGTGGACAGGACCACACCCAGCG
For the molecule B5, the dissociation constant (Kd) in data set [1] was over 1000 nM.

B6: RNV604 (ssDNA)
DNA: GGACAGGACCACACCCAGCGGATACCTGAAGCTGGCCCACATTTATCTACGCGATATATTGGCTCCTGTGTGTCGCTTTGT
As for B6, the binding result in data set [3] is “binds”.

B7: RNV606 (ssDNA)
DNA: GGACAGGACCACACCCAGCGGATAACTAGGCACCCGGTGTCGTTATTATGACAAGATATTGGCTCCTGTGTGTCGCTTTGT
B7: the binding result in data set [3] was “binds”.
Molecule ACAGTGTGGGCGGGCGGGTGGTTTGGAGCTGGTAGCGGTA (ssDNA) [AP10-01] returned a dissociation constant (Kd) in data set [4] of 54 nM. The binding signal in data set [2] was 4.21 ratio.

B8: AP10-01-81 (ssDNA)
DNA: GGACAGGACCACACCCAGCGACAGTGTGGGCGGGCGGGTGGTTTGGAGCTGGTAGCGGTAGGCTCCTGTGTGTCGCTTTGT
Molecule B8 yielded a Kd in data set [5] of 59 nM.

B9: RNV602 (ssDNA)
DNA: GGACAGGACCACACCCAGCGTAATAATATGGGGCTTGCGGTCCCCGATTTTTATGCACACGGCTCCTGTGTGTCGCTTTGT
Take B9: the binding result (with Fibrinogen; in data set [6]) was “no binding” in each case.

B10: RNV605 (ssDNA)
DNA: GGACAGGACCACACCCAGCGATAATTAGGCATCCGGTCGCCAACCTTGGAGAAACTATCTGGCTCCTGTGTGTCGCTTTGT
B10: the binding result (with Fibrinogen; in data set [6]) was “no binding” each time.
